Data on four substances can be found in US20160320385A1.

Assay [1] concerns the target monoclonal antibody (moAb) G12. As to the kind of experiment: competitive ELISA with G12-HRP on a plate coated with Sigma gliadin. For orientation: ELISA stands for enzyme-linked immunosorbent assay.
The target in assay [2] is PWG gliadin (intact, undigested) (wheat). The assay is described as follows: immunochromatographic strips based on G12 moAb (GlutenTox stick); gliadin.
For assay [3], the target named is PWG gliadin after gastric and intestinal digestion (pepsin, then trypsin and chymotrypsin). As to the kind of experiment: immunochromatographic strips based on G12 moAb (GlutenTox stick); hydrolyzed gliadin.
For assay [4], the target named is 33-mer peptide from alpha-2 gliadin. The assay is described as follows: immunochromatographic strips based on G12 moAb (GlutenTox stick); untreated 33-mer peptide.
For assay [5] the target is unchanged. The assay is described as follows: immunochromatographic strips based on G12 moAb (GlutenTox stick); 33-mer peptide after digestion.

Sequence of 33-mer peptide from alpha-2 gliadin (peptide, as listed by the source): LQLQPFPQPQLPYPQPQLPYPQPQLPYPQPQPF

On to “PWG gliadin after gastric digestion (pepsin)”, for which the concentration of 33-mer (33-mer equivalents) in assay [1] turned out to be 24.5 ng 33-mer/ng.

On to “PWG gliadin after gastric and intestinal digestion (pepsin, then trypsin and chymotrypsin)”, for which the concentration of 33-mer (33-mer equivalents) in assay [1] was 7.5 ng 33-mer/µg.

For the substance monoclonal antibody (moAb) G12, the detection limit in assay [2] was determined as 30 ng/mL; in assay [3], 50 ng/mL; in assay [4], 0.5 ng/mL; in assay [5], 0.5 ng/mL.

Consider PWG gliadin (intact, undigested), for which the concentration of 33-mer (33-mer equivalents) in assay [1] was 21.6 ng 33-mer/µg.
